{
  "source": "paper doi:10.1101/2021.09.03.458882",
  "about": "(bioRxiv, 2021)",
  "proteins": {"B1": {"name": "Glucose oxidase (from Aspergillus niger) (enzyme, UniProt P13006 17-605, looked up)", "chain": "LPHYIRSNGIEASLLTDPKDVSGRTVDYIIAGGGLTGLTTAARLTENPNISVLVIESGSYESDRGPIIEDLNAYGDIFGSSVDHAYETVELATNNQTALIRSGNGLGGSTLVNGGTWTRPHKAQVDSWETVFGNEGWNWDNVAAYSLQAERARAPNAKQIAAGHYFNASCHGVNGTVHAGPRDTGDDYSPIVKALMSAVEDRGVPTKKDFGCGDPHGVSMFPNTLHEDQVRSDAAREWLLPNYQRPNLQVLTGQYVGKVLLSQNGTTPRAVGVEFGTHKGNTHNVYAKHEVLLAAGSAVSPTILEYSGIGMKSILEPLGIDTVVDLPVGLNLQDQTTATVRSRITSAGAGQGQAAWFATFNETFGDYSEKAHELLNTKLEQWAEEAVARGGFHNTTALLIQYENYRDWIVNHNVAYSELFLDTAGVASFDVWDLLPFTRGYVHILDKDPYLHHFAYDPQYFLNELDLLGQAAATQLARNISNSGAMQTYFAGETIPGDNLAYDADLSAWTEYIPYHFRPNYHGVGTCSMMPKEMGGVVDNAARVYGVQGLRVIDGSIPPTQMSSHVMTVFYAMALKISDAILEDYASMQ", "modifications": "amine reactive dye Alexa Fluor 488 on one population and Alexa Fluor 532 on the other"}},
  "target": "the molecule itself",
  "assay": "FRET or BRET",
  "data": [
    {"protein": "B1", "values": [
      {"measurement": "binding result", "value": "binds"}
    ]}
  ]
}
